To fix the notation:
B1: TPR t1 (parent)
chain: GACCAAUCUGCCCUCAGAGCUCGAGAACAUCUUCGGAUGCAGAGGAGGCAGGCUUCGGUGGCGCGAUAGCGCCAACGUCCUCAACCUCCAAUGCAUCCCACCACAUGAUGAUGCCUGAAGAGCCUUGGUUUUUUG

The variants in this series derive from B1. In words: polymerase ribozyme fitness, log enrichment relative to wild type (log ratio); higher = more active; in vitro selection for triplet polymerase activity. The gist of the method: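 In triplicate, a single round of in vitro selection was run on each mutant library, PCR-built and transcribed, covering one subunit of a heterodimeric triplet polymerase ribozyme. Frozen incubation at −7 °C followed annealing with a biotinylated primer, partner subunit and triplets, and extended constructs were then gel-excised, streptavidin-captured and taken through RT-PCR. Fitness is the logarithm of genotype enrichment over wild-type enrichment, from inverse-variance-weighted replicate averages of Illumina-sequenced inputs and outputs. […] only genotypes with ≥10 input reads and ≥1 read per output were kept.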
U78A G135U: the “polymerase ribozyme fitness (log ratio)” value was -0.889.

For C4U G69U C72G C124G, the “polymerase ribozyme fitness (log ratio)” value was found to be 0.464.

For C56G G120U, the “polymerase ribozyme fitness (log ratio)” value is -0.0956.

Take C72A U87G: the “polymerase ribozyme fitness (log ratio)” value came out at 0.194.

Take A18U G44U: the “polymerase ribozyme fitness (log ratio)” value was -2.49.

C3U C12U G63A C89G: the “polymerase ribozyme fitness (log ratio)” value is -3.24.

For U21A G60A C86U, the “polymerase ribozyme fitness (log ratio)” value was -1.23.

On to U9A C73U C123G U134C, for which the “polymerase ribozyme fitness (log ratio)” value came to 2.44.

Turning to G39U G58A, the “polymerase ribozyme fitness (log ratio)” value was determined as 0.844.

For G19U C94A A105C C114A A118U, the “polymerase ribozyme fitness (log ratio)” value is -0.986.

As for C15A G47U C80U C86A, the “polymerase ribozyme fitness (log ratio)” value was -3.28.

U33C C79U: the “polymerase ribozyme fitness (log ratio)” value was -4.51.

Turning to A18U C53U C124G, the “polymerase ribozyme fitness (log ratio)” value is -0.337.

U59G C72G: the “polymerase ribozyme fitness (log ratio)” value is -2.51.

As to A46C A100G, the “polymerase ribozyme fitness (log ratio)” value was -4.28.

For A2G C12U A66G C79A G122A, the “polymerase ribozyme fitness (log ratio)” value was -2.62.

As for G48A C89G A95G, the “polymerase ribozyme fitness (log ratio)” value is -3.06.

As to C11U G69A A84C C123U, the “polymerase ribozyme fitness (log ratio)” value is -0.562.

In the case of U7G U9A G60U C82U, the “polymerase ribozyme fitness (log ratio)” value stood at 0.122.

In the case of C12U A37U G69A G128U, the “polymerase ribozyme fitness (log ratio)” value is -5.83.

As to G44U A50U G60C C101A C115A, the “polymerase ribozyme fitness (log ratio)” value is -4.05.

Consider A16U A84U A100U C124A U129G, for which the “polymerase ribozyme fitness (log ratio)” value was -0.308.

As to A26U G39C G61A A83U G110A A121G, the “polymerase ribozyme fitness (log ratio)” value was -5.04.

As to C53A C80U U106A, the “polymerase ribozyme fitness (log ratio)” value was -5.29.

As for C102U U109G, the “polymerase ribozyme fitness (log ratio)” value is -5.46.

With C8U C72U, the “polymerase ribozyme fitness (log ratio)” value was determined as 0.252.

On to A43C G47U C53U C88G C104U, for which the “polymerase ribozyme fitness (log ratio)” value was -6.05.

For the variant U54G G63C C70U, the “polymerase ribozyme fitness (log ratio)” value is -1.73.

In the case of C20A G69U C104A, the “polymerase ribozyme fitness (log ratio)” value is -2.59.

U81A A95C A121C: the “polymerase ribozyme fitness (log ratio)” value is 0.395.

As for U21G G36A U54A G63U C82A C123A, the “polymerase ribozyme fitness (log ratio)” value was -3.52.

In the case of C73G C89A C104U A119U, the “polymerase ribozyme fitness (log ratio)” value was -3.03.

Turning to U55G G60A C89A C114A, the “polymerase ribozyme fitness (log ratio)” value is -2.87.

As for U33G C79G, the “polymerase ribozyme fitness (log ratio)” value is -6.57.

Regarding C12U C40G A50G C64G A103U U112C C115A A118G G127U, the “polymerase ribozyme fitness (log ratio)” value is -5.71.

Consider G10A G39U, for which the “polymerase ribozyme fitness (log ratio)” value was -0.557.

With C11G A83U U126G, the “polymerase ribozyme fitness (log ratio)” value was -0.958.

For C72G G120U, the “polymerase ribozyme fitness (log ratio)” value amounted to 0.278.

C34U U112G: the “polymerase ribozyme fitness (log ratio)” value is -3.89.

Turning to C62U A103G, the “polymerase ribozyme fitness (log ratio)” value is -5.08.

For the variant G36A G57A C80U U112C C114A A119U G122U, the “polymerase ribozyme fitness (log ratio)” value was -5.44.

For C70G C104G G110A, the “polymerase ribozyme fitness (log ratio)” value was -6.86.

Consider C8G G19C C20U U21G U54C U87G, for which the “polymerase ribozyme fitness (log ratio)” value was -4.85.

For the variant A46G G58U G69A G110A, the “polymerase ribozyme fitness (log ratio)” value was -4.68.

Take A66C C86U C114G U129G: the “polymerase ribozyme fitness (log ratio)” value was -4.68.

For A111G G117A, the “polymerase ribozyme fitness (log ratio)” value was -1.65.

On to A29U U130G, for which the “polymerase ribozyme fitness (log ratio)” value is -2.07.

With C53U G60A A84C, the “polymerase ribozyme fitness (log ratio)” value is -0.485.

With A5C C72A C88A, the “polymerase ribozyme fitness (log ratio)” value was -1.74.

On to A29G C85G C88U, for which the “polymerase ribozyme fitness (log ratio)” value was -2.58.

On to A37U A91G A105U, for which the “polymerase ribozyme fitness (log ratio)” value was -3.28.

Regarding C12U C15U G61C C104U, the “polymerase ribozyme fitness (log ratio)” value was -1.43.

For the variant C12G A100C, the “polymerase ribozyme fitness (log ratio)” value was -0.741.

For A37G C53A C73G A105G U109G U112A, the “polymerase ribozyme fitness (log ratio)” value was -6.74.

Turning to G71U C86U, the “polymerase ribozyme fitness (log ratio)” value was -0.637.

As for G17U C49A G69C U109C C115A, the “polymerase ribozyme fitness (log ratio)” value was -7.12.

Turning to C94G C114U, the “polymerase ribozyme fitness (log ratio)” value is -3.17.

With U9C A43G G61A C89U, the “polymerase ribozyme fitness (log ratio)” value was -1.55.

For U32C C124G G135U, the “polymerase ribozyme fitness (log ratio)” value was determined as 0.917.

A84U C102A A103G U109G C114U: the “polymerase ribozyme fitness (log ratio)” value is -3.45.

In the case of C72G A100U G113U C124U, the “polymerase ribozyme fitness (log ratio)” value was -4.64.

As for C8G G93A G113A, the “polymerase ribozyme fitness (log ratio)” value is -0.312.

Consider G71U U112G, for which the “polymerase ribozyme fitness (log ratio)” value was -0.608.

For the variant C15U G47C G48U C62G A100U C124U, the “polymerase ribozyme fitness (log ratio)” value was -5.24.

Consider A37U C72U C98A C123G, for which the “polymerase ribozyme fitness (log ratio)” value was -5.11.

In the case of C12U C49A C62A C70A U78A, the “polymerase ribozyme fitness (log ratio)” value is -4.12.

U7A G47A: the “polymerase ribozyme fitness (log ratio)” value is -0.612.

On to C13U A43C G71A C73G C82A C98G C102A A105U G117C, for which the “polymerase ribozyme fitness (log ratio)” value was -6.52.

For C13A C102A, the “polymerase ribozyme fitness (log ratio)” value is -3.7.

Regarding A90U C104A G113C, the “polymerase ribozyme fitness (log ratio)” value was -3.66.

In the case of C15G C104U U132A, the “polymerase ribozyme fitness (log ratio)” value is -1.67.

For C22U C70A, the “polymerase ribozyme fitness (log ratio)” value is -4.49.

On to G10A A83C G128U, for which the “polymerase ribozyme fitness (log ratio)” value is -2.33.

In the case of C15G G63U U96A C99U G117U, the “polymerase ribozyme fitness (log ratio)” value is -5.62.

For the variant U32C G42C U54G C94A, the “polymerase ribozyme fitness (log ratio)” value was -2.1.

As to C8G C11G C20U G63C, the “polymerase ribozyme fitness (log ratio)” value is -1.38.

In the case of U21A C56U C62U C85G, the “polymerase ribozyme fitness (log ratio)” value is -3.76.

For the variant C13U C15U A27C A29G C73U, the “polymerase ribozyme fitness (log ratio)” value was -4.69.

In the case of A2C U7C C15U C72U A105U, the “polymerase ribozyme fitness (log ratio)” value is -3.49.

On to A27U G35A C49U C88A A90G C98A U109A, for which the “polymerase ribozyme fitness (log ratio)” value was -4.79.

As to A46U G77A A95G, the “polymerase ribozyme fitness (log ratio)” value is -1.31.

A5G C53A U59A G77U C94U: the “polymerase ribozyme fitness (log ratio)” value is -0.908.

In the case of U30G C34G C40U C73U A91C C114U, the “polymerase ribozyme fitness (log ratio)” value was -7.29.

Values taken from the RNAGym collection of RNA variant scans (doi:10.1073/pnas.2313332121).
